{
  "source": "patent US20240247069A1",
  "about": "“FGFR3 BINDING MOLECULES AND METHODS OF USE THEREOF” (Regeneron Pharmaceuticals, Inc., priority 2023, published 2024)",
  "origin": "cited, not measured here",
  "molecules": {"B1": {"name": "MS-Pro-55: anti-FGFR3 Ig-like domain 3 antibody of WO 2002/102972 A2; VH SEQ ID NO:44, VL SEQ ID NO:45 (antibody, V domains shown)", "VH": "QVQLVQSGAEVKKPGASVKVSCKASGYTFTSYYMHWVRQAPGQGLEWMGWINPNSGGTNYAQKFQGRVTMTRDTSISTAYMELSSLRSEDTAVYYCARSMNSTMYWYLRRVLFDHWGQGTLVTVSS", "VL": "DIALTQPASVSGSPGQSITISCTGTSSDVGGYNYVSWYQQHPGKAPKLMIYDVSNRPSGVSNRFSGSKSGNTASLTISGLQAEDEADYYCQSYDMYNYIVFGGGTKLTVLGQ"}, "B2": {"name": "PRQ-055: anti-FGFR3 IIIc antibody of WO 2006/048877 A2; VH SEQ ID NO:44, VL SEQ ID NO:45 (antibody, V domains shown)", "VH": "B1 VH", "VL": "B1 VL"}, "B3": {"name": "PRQ-026: anti-FGFR3 IIIc antibody of WO 2006/048877 A2; VH SEQ ID NO:36, VL SEQ ID NO:37 (antibody, V domains shown)", "VH": "QVQLVQSGAEVKKPGASVKVSCKASGYTFTSYYMHWVRQAPGQGLEWMGWINPNSGGTNYAQKFQGRVTMTRDTSISTAYMELSSLRSEDTAVYYCARGYWYAYFTYINYGYFDNWGQGTLVTVSS", "VL": "DIALTQPASVSGSPGQSITISCTGTSSDVGGYNYVSWYQQHPGKAPKLMIYDVSNRPSGVSNRFSGSKSGNTASLTISGLQAEDEADYYCQSYDNNSDWFGGGTKLTVLGQ"}, "B4": {"name": "PRQ-029: anti-FGFR3 IIIc antibody of WO 2006/048877 A2; VH SEQ ID NO:40, VL SEQ ID NO:49 (antibody, V domains shown)", "VH": "QVQLVQSGAEVKKPGASVKVSCKASGYTFTSYYMHWVRQAPGQGLEWMGWINPNSGGTNYAQKFQGRVTMTRDTSISTAYMELSSLRSEDTAVYYCARTWQYSYFYYLDGGYYFDIWGQGTLVTVSS", "VL": "DIVLTQSPATLSLSPGERATLSCRASQSVSSSYLAWYQQKPGQAPRLLIYGASSRATGVPARFSGSGSGTDFTLTISSLEPEDFATYYCQQTNNAPVTFGQGTKVEIKRT"}, "B5": {"name": "MS-Pro-54: anti-FGFR3 Ig-like domain 3 antibody of WO 2002/102972 A2; VH SEQ ID NO:42, VL SEQ ID NO:43 (antibody, V domains shown)", "VH": "QVQLVQSGAEVKKPGASVKVSCKASGYTFTSYYMHWVRQAPGQGLEWMGWINPNSGGTNYAQKFQGRVTMTRDTSISTAYMELSSLRSEDTAVYYCARNMAYTNYQYVNMPHFDYWGQGTLVTVSS", "VL": "DIELTQPPSVSVAPGQTARISCSGDALGDKYASWYQQKPGQAPVLVIYDDSDRPSGIPERFSGSNSGNTATLTISGTQAEDEADYCQSYDYFKLVFGGGTKLTVLGQ"}, "B6": {"name": "PRQ-054: anti-FGFR3 IIIc antibody of WO 2006/048877 A2; VH SEQ ID NO:42, VL SEQ ID NO:50 (antibody, V domains shown)", "VH": "B5 VH", "VL": "DIELTQPPSVSVAPGQTARISCSGDALGDKYASWYQQKPGQAPVLVIYDDSDRPSGIPERFSGSNSGNTATLTISGTQAEDEADYYCQSYDYFKLVFGGGTKLTVLGQ"}, "B7": {"name": "15D8: anti-FGFR3 domain 3 antibody of WO 2010/002862 A2; VH SEQ ID NO:51, VL SEQ ID NO:52 (antibody, V domains shown)", "VH": "EIQLQQSGPELVKPGASVKVSCKASGYAFTSYNMYWVKQSHGKSLEWIGYIDPYNGGTSYNQKFKGKATLTVDKSSSTAYMHLNSLTSEDSAVYYCAREGGNYEAWFAYWGQGTLVTVSA", "VL": "QIVLTQSPALMSASPGEKVTMTCSASSSVSYMYWYQQKPRSSPKPWIYLTSYLASGVPARFSGSGSGTSYSLTISSMEAEDAATYYCQQWSSYPLTFGAGTKLELK"}, "B8": {"name": "27H2: anti-FGFR3 domain 3 antibody of WO 2010/002862 A2; VH SEQ ID NO:53, VL SEQ ID NO:54 (antibody, V domains shown)", "VH": "B7 VH with S59R, L70M", "VL": "B7 VL with Y52N, Y93N"}, "B9": {"name": "PRQ-012: anti-FGFR3 domain 2 antibody of WO 2006/048877 A2; VH SEQ ID NO:47, VL SEQ ID NO:27 (antibody, V domains shown)", "VH": "QVQLKESGPALVKPTQTLTLTCTFSGFSLSTSGVGVGWIRQPPGKALEWLALIDWDDDKYYSTSLKTRLTISKDTSKNQVVLTMTNMDPVDTATYYCARYHSWYEMGYYGSTVGYMFDYWGQGTLVTVSS", "VL": "B6 VL with Y92F, F93D, K94F, L95A"}, "B10": {"name": "MS-PRQ-12: anti-FGFR3 Ig-like domain 2 antibody of WO 2002/102972 A2; VH SEQ ID NO:26, VL SEQ ID NO:27 (antibody, V domains shown)", "VH": "QVQLKESGPALVKPQTLTLTCTFSGFSLSTSGVGVGWIRQPPGKALEWLALIDWDDDKYYSTSLKTRLTISKDTSKNQVVLTMTNMDPVDTATYYCARYHSWYEMGYYGSTVGYMFDYWGQGTLVTVSS", "VL": "B6 VL with Y92F, F93D, K94F, L95A"}, "B11": {"name": "PRQ-001: anti-FGFR3 domain 2 antibody of WO 2006/048877 A2; VH SEQ ID NO:46, VL SEQ ID NO:29 (antibody, V domains shown)", "VH": "QVQLQQSGPGLVKPSQTLSLTCAISGDSVSSNSAAWNWIRQSPGRGLEWLGRTYYRSKWYNDYAVSVKSRITINPDTSKNQFSLQLNSVTPEDTAVYYCARSYYPDFDYWGQGTLVTVSS", "VL": "DIELTQPPSVSVAPGQTARISCSGDALGDKYASWYQQKPGQAPVLVIYDDSDRPSGIPERFSGSNSGNTATLTISGTQAEDEADYYCQSYDGPDLWVFGGGTKLTVLGQ"}, "B12": {"name": "PRQ-002: anti-FGFR3 domain 2 antibody of WO 2006/048877 A2; VH SEQ ID NO:24, VL SEQ ID NO:25 (antibody, V domains shown)", "VH": "QVQLVQSGAEVKKPGASVKVSCKASGYTFTSYYMHWVRQAPGQGLEWMGWINPNSGGTNYAQKFQGRVTMTRDTSISTAYMELSSLRSEDTAVYYCARDFLGYEFDYWGQGTLVTVSS", "VL": "B11 VL with G92Y, P93S, D94A, L95D, W96Y"}},
  "note": "Changes are numbered by the printed parent chain.",
  "data": [
    {"system": "FGFR3", "details": "Table T-3, exemplary FGFR3 D3 binding sequences from cited PCT publications", "values": [
      {"molecule": "B1", "Activity": "Antagonistic"},
      {"molecule": "B2", "Activity": "Antagonistic"},
      {"molecule": "B3", "Activity": "Antagonistic"},
      {"molecule": "B4", "Activity": "Antagonistic"},
      {"molecule": "B5", "Activity": "Antagonistic"},
      {"molecule": "B6", "Activity": "Antagonistic"},
      {"molecule": "B7", "Activity": "Antagonistic"},
      {"molecule": "B8", "Activity": "Antagonistic"}
    ]},
    {"system": "FGFR3", "details": "literature antibodies, sequences from cited PCT publications", "values": [
      {"molecule": "B1", "Activity": "Antagonistic"},
      {"molecule": "B2", "Activity": "Antagonistic"},
      {"molecule": "B3", "Activity": "Antagonistic"},
      {"molecule": "B4", "Activity": "Antagonistic"},
      {"molecule": "B9", "Activity": "Antagonistic"},
      {"molecule": "B10", "Activity": "Antagonistic"},
      {"molecule": "B5", "Activity": "Antagonistic"},
      {"molecule": "B6", "Activity": "Antagonistic"},
      {"molecule": "B7", "Activity": "Antagonistic"},
      {"molecule": "B8", "Activity": "Antagonistic"},
      {"molecule": "B11", "Activity": "Antagonistic"},
      {"molecule": "B12", "Activity": "Antagonistic"}
    ]}
  ]
}
